Measured values as given in US20240382677A1 (Regeneron, published 2024).
Changes are numbered by the printed parent chain.

T1: monkey PD-1 with mFc (monkey PD-1-mFc) (monkey)
T1 construct: also called monkey PD-1 dimer; MfPD-1 dimer
T1 chain: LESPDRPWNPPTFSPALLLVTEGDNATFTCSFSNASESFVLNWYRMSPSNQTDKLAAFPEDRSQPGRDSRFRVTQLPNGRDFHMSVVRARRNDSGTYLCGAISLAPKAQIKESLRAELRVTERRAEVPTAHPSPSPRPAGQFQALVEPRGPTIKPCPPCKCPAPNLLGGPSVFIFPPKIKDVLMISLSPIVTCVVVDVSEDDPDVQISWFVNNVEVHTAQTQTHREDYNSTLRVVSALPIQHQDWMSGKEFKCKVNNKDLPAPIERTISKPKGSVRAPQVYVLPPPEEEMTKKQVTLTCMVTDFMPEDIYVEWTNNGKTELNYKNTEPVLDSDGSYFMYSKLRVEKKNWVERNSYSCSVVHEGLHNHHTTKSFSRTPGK

B1: H2aM7791N (antibody, mouse IgG2a, V domains shown)
VH: QMQLQQWGAGLLKPSETLSLTCVVYGGSLNGYYWSWIRQSPGKGLEWIGEIDHSGSTNYNPSLKNRVTMSVDTSKIQFSLKLTSVTVADTAVYYCAREGLLPFDYWGQGTLVTVSS
VL: EIVLTQSPGTLSLSPGERVTLSCRASQSVYSNYLAWYQQNPGQAPRLLIYAASNRATGIPDRFSGSGSGTDFTLTISRLEPEDFAVYYCHQYATSPWTFGQGTKVEIK
notes: mouse IgG2a Fc; human variable regions; also called H2M7791N
B2: H4xH8992P (antibody, V domains shown)
VH: EVQLVESGGGLVQPGRSLRLSCVASGFALHDYAMHWVRQVPGKGLEWVSSISWNSGVIGYADSLKGRFTISRDNAKNSLYLQMNSLRAEDTALYYCAKGSGSYYVSWFDPWGQGTLVTVSS
VL: not shown
notes: human IgG4 Fc with 2 or more amino acid changes (US20100331527)
B3: H4xH9045P (antibody, V domains shown)
VH: EVQLVESGGGLVQPGRSLRLSCAASGFTFDDYDMHWVRQAPGKGLEWVSGSGWNRGSLGYADSVKGRFTISRDNAKKSLYLQMNSVRVEDTALYYCAKGFVVVSAAYFDYWGQGTLVTVSS
VL: not shown
B4: H4H7798N (antibody, human IgG4 S228P, kappa, V domains shown)
VH: EVQLLESGGVLVQPGGSLRLSCAASGFTFSNFGMTWVRQAPGKGLEWVSGISGGGRDTYFADSVKGRFTISRDNSKNTLYLQMNSLKGEDTAVYYCVKWGNIYFDYWGQGTLVTVSS
VL: DIQMTQSPSSLSASVGDSITITCRASLSINTFLNWYQQKPGKAPNLLIYAASSLHGGVPSRFSGSGSGTDFTLTIRTLQPEDFATYYCQQSSNTPFTFGPGTVVDFRR
notes: human IgG4 Fc; also called REGN2810; cemiplimab
B5: H2aM7798N (antibody, mouse IgG2a, V domains shown)
VH: B4 VH
VL: DIQMTQSPSSLSASVGDSITITCRASLSINTFLNWYQQKPGKAPNLLIYAASSLHGGVPSRFSGSGSGTDFTLTIRTLQPEDFATYYCQQSSNTPFTFGPGTVVDFR
notes: mouse IgG2a Fc; human variable regions; also called H2M7798N
B6: H1M7789N (antibody, mouse IgG1, V domains shown)
VH: EVQLLESGGGLVQPGGSLRLSCSASGFTFSSYTMNWVRQAPGKGLEWVSGISDTGGNTYYTDSVKGRFTVSRDNSKNTLSLQMNSLRAEDTAVYYCAKDQGGSYPYYFHYWGQGSLVTVSS
VL: DIQMTQSPSSLSASVGDRVTITCRASQSISSYLIWYQQKPGTAPKFLIYAASSLQSGVPSRFSGCGSGTDFTLTISSLQPEDFATYYCQQSYSTPPITFGQGTRLEIK
notes: mouse IgG1 Fc; human variable regions; also called H1M7789W
B7: H4xH9035P (antibody, V domains shown)
VH: EVQLVESGGRVVRPGGSLRLSCAASGFTFDDYGMSWVRQLPGKGLEWVAGISWNDGKTVYAESVKGRFIISRDNAKNSLHLEMNSLRAEDTALYYCARDWQYLIDRYFDFWGQGTLVTVSS
VL: not shown
B8: H2aM7796N (antibody, mouse IgG2a, V domains shown)
VH: QVQLVESGGGVVQPGRSLRLSCAASGFTFSSYGMHWVRQAPGKGLEWVAIIWSDGDSEYNLDSVKGRFTISRDNSKNTLYLQMNSLRVEDSAVYYCARDRDLEDIWGQGTMVTVSS
VL: DIQMTQSPSSLSASVGDRVTITCRASQGIRNDLGWYQQKPGKAPKRLIYAASNLQSGVPSRFSGSGSGTEFTLTISSLQPEDFATYYCLQHNSYPLTFGGGTKVEIK
notes: mouse IgG2a Fc; human variable regions; also called H2M7796N
B9: H4xH9037P (antibody, V domains shown)
VH: EVQLVESGGGLVQPGGSLRLSCAASGFTFDDYAMHWVRQAPGKGLEWVSGIGWSSGSIGYADSVKGRFTISRDNAKNSLYLQMDSLRPEDSALYYCAKAYTFMITLYFDYWGQGTLVTVSS
VL: not shown
B10: H4xH9048P2 (antibody, V domains shown)
VH: QVQLVQSGAEVKRPGSSVKVSCKVSGVTFRNFAIIWVRQAPGQGLEWMGGIIPFFSAANYAQSFQGRVTITPDESTSTAFMELASLRSEDTAVYYCAREGERGHTYGFDYWGQGTLVTVSS
VL: not shown
B11: H4xH9008P (antibody, V domains shown)
VH: EVQLVESGGGLVRPGGSLRLSCAASGFTFSTYAMAWVRQTPGKGLEGVSAIGGSGDSTYYVDSVKGRFTISRDNSKSTLFLQMNSLRAEDTAVYYCVKVRNYDGSFDIWGQGTMVTVSS
VL: not shown
notes: as for B2
B12: H4H7795N2 (antibody, human IgG4 S228P, kappa, V domains shown)
VH: EVQVVESGGGLVEPGRSLRLSCKASGFTFDDYAMHWVRQTPGKALEWVSGISWSGNNIGYADSVKGRFTISKDDAKNSLYLQMNSLRPEDTALYYCTKDISITGTLDAFDVWGQGTMVTVSS
VL: DIQMTQSPISVSASVGDRVTITCRASQGISNWLAWYQQKPGIAPKLLIYSASSLQSGVPSRFRGSGSGTDFTLTIGSLQPEDFATYYCQQAHSFPLTFGGGTKVEIKR
notes: human IgG4 Fc
B13: H2aM7795N (antibody, mouse IgG2a, V domains shown)
VH: B12 VH with S52N
VL: DIQMTQSPISVSASVGDRVTITCRASQGISNWLAWYQQKPGIAPKLLIYSASSLQSGVPSRFRGSGSGTDFTLTIGSLQPEDFATYYCQQAHSFPLTFGGGTKVEIK
notes: mouse IgG2a Fc; human variable regions; also called H2M7795N
B14: H4H9057P2 (antibody, V domains shown)
VH: EVQLVESGGGLVQSGRSLRLSCAASGFTFDDYAMHWVRQPPGKGLEWVSGINWNRGRTGYADSVKGRFTISRDNAKNSLYLQMNDLRVEDTALYYCAKAEQWLDEGYFDYWGQGTLVTVSS
VL: not shown
B15: H2aM7788N (antibody, mouse IgG2a, V domains shown)
VH: EVQLVESGGGLVQPGGSLRLSCGASGFTFRNYDMHWVRQITGKGLEWVSAIGSAGDTYYPDSVKGRFTISRENAKNSLYLQMNSLRVGDTAVYYCTRDIHCSSTRCYGMDVWGQGTTVTVSS
VL: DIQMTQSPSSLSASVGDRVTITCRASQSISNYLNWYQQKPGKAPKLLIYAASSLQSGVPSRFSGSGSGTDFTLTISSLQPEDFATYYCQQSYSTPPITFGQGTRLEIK
notes: mouse IgG2a Fc; human variable regions; also called H2M7788N
B16: H4xH8999P (antibody, V domains shown)
VH: QLQLQESGPGLVQPSETLSLTCTVSGDSISSTAYHWDWIRQPPGKGLEWIGTITYNGNTYFNPSLKSRVTISVDTSKNQFSLKLLSMTAAETAVFYCARHLGYNSDFFPFDFWGQGTLVTVSS
VL: not shown
notes: as for B2
B17: H2aM7794N (antibody, V domains shown)
VH: QLQLQESGPDLVKPSDTLSLTCTVSDDSISSTTYYWAWIRQPPGKGLEWIGSMSYNGNNYYNPSLKSRVAISAGTSQKQFSLKLTSVTAADTAVYHCARHLGYNGNWYPFDFWGQGILVTVSS
VL: not shown
notes: mouse IgG2a Fc; human variable regions; also called H2M7794N

Tests used:
[1] = target: T2, recombinant human PD-1 dimer expressed with a C-terminal mouse IgG2a Fc tag (hPD-1-mFc) (human); test: BLI Octet Red 96, captured hPD-L1-hFc
T2 construct: also called human PD-1-mFc
Protocol: Inhibition studies for anti-PD-1 monoclonal antibodies expressed with a mouse Fc were performed on an Octet Red 96 instrument. […] The biosensors were washed in Octet HBST buffer in between each step of the experiment. The real-time binding responses were monitored during the entire course of the experiment and the binding response at the end of every step was recorded.

[2] = target: T1, monkey PD-1 with mFc (monkey PD-1-mFc); test: SPR 25C, mAb captured
Protocol: (§1) Binding association and dissociation rate constants (ka and kd, respectively), equilibrium dissociation constants and dissociation half-lives (KD and t½, respectively) for antigen binding to purified anti-PD1 antibodies were determined using a real-time surface plasmon resonance biosensor assay on a Biacore 4000 or Biacore T200 instrument. […] Experiments were performed at 25° C. and 37° C. Kinetic association (ka) and dissociation (kd) rate constants were determined by processing and fitting the data to a 1:1 binding model using Scrubber 2.0c curve fitting software. Binding dissociation equilibrium constants (KD) and dissociative half-lives (t½) were then calculated from the kinetic rate constants as: KD (M)=kd/ka and t½ (min)=[ln 2/(60*kd)].

[3] = target: T1, monkey PD-1 with mFc (monkey PD-1-mFc); test: SPR 37C, mAb captured;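 also: Real-time binding of antigen to purified anti-PD-1 antibodies, measured by surface plasmon resonance on a Biacore 4000 or T200 instrument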
Protocol: as §1

binding of the mixture of 100 nM hPD-1-mFc and 500 nM antibody [1] | 100 nM Monkey PD-1-mFc Bound [2] | t½ [2] | 100 nM Monkey PD-1-mFc Bound [3] | t½ [3] | Kd [2] | Binder
0.23 nm |  |  |  |  |  | B1
 | 122 RU | 0.767 h | 86 RU | 0.133 h |  | B2
 | 78 RU | 1.15 h | 65 RU | 0.133 h |  | B3
 | 93 RU | 3.13 h | 88 RU | 1.52 h |  | B4
0.01 nm |  |  |  |  |  | B5
0.05 nm |  |  |  |  |  | B6
 | 78 RU | 1.93 h | 40 RU | 0.317 h |  | B7
-0.02 nm |  |  |  |  |  | B8
 | 58 RU | 1.4 h | 24 RU |  |  | B9
 | 115 RU | 1.05 h | 84 RU |  |  | B10
 |  | 3.33 h | 98 RU |  |  | B11
 | 60 RU | 1.93 h | 47 RU | 0.667 h |  | B12
-0.01 nm |  |  |  |  |  | B13
 | 75 RU | 0.633 h | 28 RU | 0.04 h | 2.96 nM | B14
0 nm |  |  |  |  |  | B15
 | 128 RU | 1.67 h | 83 RU | 0.383 h |  | B16
-0.01 nm |  |  |  |  |  | B17
